From article PMC11282955

Each substance was assayed against human angiotensin-converting enzyme 2 (hACE2) (UniProt Q9BYF1) (assay: SPR). Conditions: parent: est. 1.5 nM; read off a plot.
In the case of “BA.2.86 spike receptor-binding domain (RBD) K403R”, the Kd is reported as 1 nM. With “BA.2.86 spike receptor-binding domain (RBD) N354Q” the Kd was 1.6 nM. “BA.2.86 spike receptor-binding domain (RBD) L455F; F456L” was tested, and the Kd was 0.8 nM. Substance “BA.2.86 spike receptor-binding domain (RBD) N417K; H505Y” has a Kd of 0.27 nM. “BA.2.86 spike receptor-binding domain (RBD) H445V” gave a Kd of 0.46 nM. “BA.2.86 spike receptor-binding domain (RBD) P486F” was tested, and the Kd was 0.39 nM. With “BA.2.86 spike receptor-binding domain (RBD) L455S” the Kd was 4.3 nM. For “BA.2.86 spike receptor-binding domain (RBD) H505Y”, the Kd was 0.58 nM. With “BA.2.86 spike receptor-binding domain (RBD) N417K; H505Y; L455F; F456L” the Kd was 0.53 nM. With “BA.2.86 spike receptor-binding domain (RBD) D450N” the Kd was 0.52 nM. Substance “BA.2.86 spike receptor-binding domain (RBD) N417K” has a Kd of 0.62 nM. Work on “BA.2.86 spike receptor-binding domain (RBD) ins483V” yielded a Kd of 0.88 nM. “BA.2.86 spike receptor-binding domain (RBD) K481N” was tested, and the Kd was 0.66 nM. With “BA.2.86 spike receptor-binding domain (RBD) W452L” the Kd was 0.58 nM. “BA.2.86 spike receptor-binding domain (RBD) K484A” gave a Kd of 1.2 nM.
